From US20250000992A1 (Eli Lilly, published 2025) come the findings set out here.

The target in the assay is T1, Sortilin receptor on HEK293 cells (UniProt Q99523 78-831, limits assumed).
T1 construct: whole, on cells
The assay can be described thus: +/- matrix drawn left of the bar chart (Cathepsin D ELISA, HEK293 cells); the binding assay behind the marks is not given.

B1: His-PGRN (ligand)
single chain: HHHHHHGGGGQGGGGQGGGGQENLYFQSGGGGQTRCPDGQFCPVACCLDPGGASYSCCRPLLDKWPTTLSRHLGGPCQVDAHCSAGHSCIFTVSGTSSCCPFPEAVACGDGHHCCPRGFHCSADGRSCFQRSGNNSVGAIQCPDSQFECPDFSTCCVMVDGSWGCCPMPQASCCEDRVHCCPHGAFCDLVHTRCITPTGTHPLAKKLPAQRTNRAVALSSSVMCPDARSRCPDGSTCCELPSGKYGCCPMPNATCCSDHLHCCPQDTVCDLIQSKCLSKENATTDLLTKLPAHTVGDVKCDMEVSCPDGYTCCRLQSGAWGCCPFTQAVCCEDHIHCCPAGFTCDTQKGTCEQGPHQVPWMEKAPAHLSLPDPQALKRDVPCDNVSSCPSSDTCCQLTSGEWGCCPIPEAVCCSDHQHCCPQGYTCVAEGQCQRGSEIVAGLEKMPARRASLSHPRDIGCDQHTSCPVGQTCCPSLGGSWACCQLPHAVCCEDRQHCCPAGYTCNVKARSCEKEVVSAQPATFLARSPHVGVKDVECGEGHFCHDNQTCCRDNRQGWACCPYRQGVCCADRRHCCPAGFRCAARGTKCLRREAPRWDAPLRDPALRQLL
notes: 55; also called His tagged PGRN; His-Tagged PGRN
With B1, the binding result was “binds”.
